Results reported in patent US20150344548A1.

Experiments:
[1] = target: Staphylococcus aureus protein A (SpA) in the cell wall of SA bacteria (strain ATCC #25923 and clinical isolate 00X) (Staphylococcus aureus); assay: flow cytometry: SA strain ATCC #25923 incubated with biotinylated MABp1 (negative control), then streptavidin-APC; mean fluorescence FL4-H from the table beside the histogram (bottom panel)
[2] = target: Staphylococcus aureus protein A (SpA) in the cell wall of SA bacteria (strain ATCC #25923 and clinical isolate 00X) (Staphylococcus aureus); assay: flow cytometry: SA clinical isolate 00X incubated with biotinylated MABp1 (negative control), then streptavidin-APC; mean fluorescence FL4-H from the table beside the histogram (top panel)
[3] = target: Staphylococcus aureus protein A (SpA) in the cell wall of SA bacteria (strain ATCC #25923 and clinical isolate 00X) (Staphylococcus aureus); assay: flow cytometry: SA clinical isolate 00X pre-incubated with human sera for 15 minutes, then biotinylated MABp1-IgG3 (isotype-matched negative control), then streptavidin-APC (top panel)
[4] = target: Staphylococcus aureus protein A (SpA) in the cell wall of SA bacteria (strain ATCC #25923 and clinical isolate 00X) (Staphylococcus aureus); assay: flow cytometry: SA strain ATCC #25923 by the legend (printed on the sheet as 25935) pre-incubated with human sera for 15 minutes, then biotinylated MABp1-IgG3 (isotype-matched negative control), then streptavidin-APC (bottom panel)

Substance | Mean:FL4-H [1] | Mean:FL4-H [2] | Mean:FL4-H [3] | Mean:FL4-H [4]
MABp1-IgG1 (antibody) | 46.7 | 29.8 |  | 
MABp1-IgG3 (antibody) |  |  | 19.1 | 10.3
